Experimental data from the supplement of paper PMC10065799, “High-throughput profiling of sequence recognition by tyrosine kinases and SH2 domains using bacterial peptide display” (eLife, 2023).

How the values were obtained:
Grb2 SH2 = Grb2 SH2 (UniProt P62993); assay: SH2 binding enrichment of the phosphorylated peptide, bacterial display (enrichment ratio); higher = better substrate or ligand; peptides without Tyr show the background
c-Src SH2 = assay: as above
SHP2-C SH2 = assay: as above
MERTK = MERTK (UniProt Q12866); assay: phosphorylation enrichment, bacterial display (enrichment ratio); higher = better substrate or ligand; peptides without Tyr show the background
Sequence of MERTK (Q12866 whole entry, looked up): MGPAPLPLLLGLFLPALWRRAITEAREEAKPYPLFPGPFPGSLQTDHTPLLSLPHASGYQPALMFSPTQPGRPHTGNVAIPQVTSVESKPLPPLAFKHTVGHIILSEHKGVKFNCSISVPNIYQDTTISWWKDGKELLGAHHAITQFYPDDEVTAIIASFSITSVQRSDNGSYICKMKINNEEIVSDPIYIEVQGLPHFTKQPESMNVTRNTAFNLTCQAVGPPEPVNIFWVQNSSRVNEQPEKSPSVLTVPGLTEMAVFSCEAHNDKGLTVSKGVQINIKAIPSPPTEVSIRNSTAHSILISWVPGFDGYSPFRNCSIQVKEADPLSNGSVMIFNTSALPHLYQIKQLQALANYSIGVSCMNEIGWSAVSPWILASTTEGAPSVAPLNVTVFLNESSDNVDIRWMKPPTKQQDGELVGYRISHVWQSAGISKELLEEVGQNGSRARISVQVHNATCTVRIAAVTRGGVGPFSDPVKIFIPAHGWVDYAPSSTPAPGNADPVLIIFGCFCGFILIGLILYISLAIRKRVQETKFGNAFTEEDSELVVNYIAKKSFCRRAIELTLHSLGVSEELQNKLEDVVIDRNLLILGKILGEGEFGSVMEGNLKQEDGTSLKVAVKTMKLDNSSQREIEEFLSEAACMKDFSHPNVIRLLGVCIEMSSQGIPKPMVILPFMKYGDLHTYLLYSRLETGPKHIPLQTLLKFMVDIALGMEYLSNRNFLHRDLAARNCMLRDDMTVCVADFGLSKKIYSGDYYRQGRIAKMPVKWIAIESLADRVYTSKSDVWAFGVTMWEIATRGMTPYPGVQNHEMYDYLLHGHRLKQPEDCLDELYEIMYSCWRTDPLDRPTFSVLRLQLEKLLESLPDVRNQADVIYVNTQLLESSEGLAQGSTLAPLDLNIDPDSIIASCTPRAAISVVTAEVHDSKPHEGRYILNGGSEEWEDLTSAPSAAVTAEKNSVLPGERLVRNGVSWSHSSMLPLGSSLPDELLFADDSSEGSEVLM

c-Src = assay: as above
Jak2 = Jak2 (UniProt O60674); assay: as above
Sequence of Jak2 (O60674 whole entry, looked up): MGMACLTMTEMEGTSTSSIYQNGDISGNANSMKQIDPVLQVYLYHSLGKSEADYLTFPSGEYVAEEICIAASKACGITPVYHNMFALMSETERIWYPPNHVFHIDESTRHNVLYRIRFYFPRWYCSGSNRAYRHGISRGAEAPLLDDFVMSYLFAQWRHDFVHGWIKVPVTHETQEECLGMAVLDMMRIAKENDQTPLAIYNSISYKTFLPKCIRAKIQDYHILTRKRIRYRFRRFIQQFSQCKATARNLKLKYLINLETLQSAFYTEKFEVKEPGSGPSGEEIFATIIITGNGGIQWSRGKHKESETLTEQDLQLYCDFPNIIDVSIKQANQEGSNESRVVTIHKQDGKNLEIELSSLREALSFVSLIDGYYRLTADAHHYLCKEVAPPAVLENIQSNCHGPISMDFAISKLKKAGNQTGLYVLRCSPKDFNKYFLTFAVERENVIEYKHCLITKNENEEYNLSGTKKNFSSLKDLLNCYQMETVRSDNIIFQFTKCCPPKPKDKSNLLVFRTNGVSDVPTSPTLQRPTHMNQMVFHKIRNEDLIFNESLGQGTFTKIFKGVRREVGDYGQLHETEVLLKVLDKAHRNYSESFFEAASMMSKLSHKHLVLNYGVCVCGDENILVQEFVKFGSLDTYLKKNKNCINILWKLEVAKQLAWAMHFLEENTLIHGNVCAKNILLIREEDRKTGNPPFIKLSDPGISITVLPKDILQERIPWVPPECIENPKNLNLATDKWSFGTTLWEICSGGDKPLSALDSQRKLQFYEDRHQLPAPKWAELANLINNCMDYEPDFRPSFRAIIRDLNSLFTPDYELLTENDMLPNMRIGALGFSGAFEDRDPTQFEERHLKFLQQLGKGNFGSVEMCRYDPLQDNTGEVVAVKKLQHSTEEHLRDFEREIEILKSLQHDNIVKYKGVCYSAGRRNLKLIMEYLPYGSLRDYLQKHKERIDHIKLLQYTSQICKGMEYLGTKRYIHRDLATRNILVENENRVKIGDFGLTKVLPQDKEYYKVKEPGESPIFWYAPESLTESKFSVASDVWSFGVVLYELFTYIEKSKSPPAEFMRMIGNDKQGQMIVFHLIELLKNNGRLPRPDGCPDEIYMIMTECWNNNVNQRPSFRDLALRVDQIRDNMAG

FGFR3 = FGFR3 (UniProt P22607); assay: as above
AncSZ = assay: as above
Fes = Fes (UniProt P07332); assay: as above
Sequence of Fes (P07332 whole entry, looked up): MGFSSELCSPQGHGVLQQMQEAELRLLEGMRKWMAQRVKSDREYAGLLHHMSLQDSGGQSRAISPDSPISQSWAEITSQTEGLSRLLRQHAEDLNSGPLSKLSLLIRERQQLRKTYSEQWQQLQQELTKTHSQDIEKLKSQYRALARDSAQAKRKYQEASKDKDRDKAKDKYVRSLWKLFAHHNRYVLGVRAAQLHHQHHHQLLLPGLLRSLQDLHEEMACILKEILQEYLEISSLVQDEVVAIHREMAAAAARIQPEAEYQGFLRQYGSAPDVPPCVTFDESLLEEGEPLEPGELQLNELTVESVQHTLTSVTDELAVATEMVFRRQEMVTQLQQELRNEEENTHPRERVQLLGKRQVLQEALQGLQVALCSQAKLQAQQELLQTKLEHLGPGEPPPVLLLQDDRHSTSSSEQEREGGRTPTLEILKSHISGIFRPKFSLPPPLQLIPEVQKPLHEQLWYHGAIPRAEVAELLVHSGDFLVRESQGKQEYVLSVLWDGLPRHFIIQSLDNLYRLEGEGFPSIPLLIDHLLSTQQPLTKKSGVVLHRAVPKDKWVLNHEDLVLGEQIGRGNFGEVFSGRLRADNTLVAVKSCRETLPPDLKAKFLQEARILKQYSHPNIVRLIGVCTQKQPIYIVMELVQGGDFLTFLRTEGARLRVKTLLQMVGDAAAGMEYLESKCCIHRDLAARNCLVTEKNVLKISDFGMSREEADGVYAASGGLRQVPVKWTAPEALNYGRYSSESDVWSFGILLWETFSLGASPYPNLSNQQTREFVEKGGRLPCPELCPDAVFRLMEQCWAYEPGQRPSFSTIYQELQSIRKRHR

EPHB2 = EPHB2 (UniProt P29323); assay: as above
Fer (mouse) = assay: as above
c-Abl (mouse) = assay: as above
Fyn = Fyn (UniProt P06241); assay: as above
Sequence of Fyn (P06241 whole entry, looked up): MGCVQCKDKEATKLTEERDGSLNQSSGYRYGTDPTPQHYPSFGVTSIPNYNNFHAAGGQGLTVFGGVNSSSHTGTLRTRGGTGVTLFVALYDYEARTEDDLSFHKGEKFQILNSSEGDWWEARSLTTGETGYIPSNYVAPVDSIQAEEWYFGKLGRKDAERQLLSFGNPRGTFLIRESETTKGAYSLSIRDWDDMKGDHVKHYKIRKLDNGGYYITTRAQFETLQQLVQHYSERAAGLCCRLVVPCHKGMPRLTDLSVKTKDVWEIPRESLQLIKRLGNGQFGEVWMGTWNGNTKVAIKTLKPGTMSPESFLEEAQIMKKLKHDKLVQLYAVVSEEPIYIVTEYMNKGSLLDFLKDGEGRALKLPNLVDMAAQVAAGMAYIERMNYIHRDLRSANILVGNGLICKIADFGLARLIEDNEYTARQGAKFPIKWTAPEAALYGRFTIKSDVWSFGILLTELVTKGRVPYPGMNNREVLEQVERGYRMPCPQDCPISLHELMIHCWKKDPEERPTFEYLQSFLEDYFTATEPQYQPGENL

Hck = Hck (UniProt P08631); assay: as above
EPHB1 = EPHB1 (UniProt P54762); assay: as above
Sequence of EPHB1 (P54762 whole entry, looked up): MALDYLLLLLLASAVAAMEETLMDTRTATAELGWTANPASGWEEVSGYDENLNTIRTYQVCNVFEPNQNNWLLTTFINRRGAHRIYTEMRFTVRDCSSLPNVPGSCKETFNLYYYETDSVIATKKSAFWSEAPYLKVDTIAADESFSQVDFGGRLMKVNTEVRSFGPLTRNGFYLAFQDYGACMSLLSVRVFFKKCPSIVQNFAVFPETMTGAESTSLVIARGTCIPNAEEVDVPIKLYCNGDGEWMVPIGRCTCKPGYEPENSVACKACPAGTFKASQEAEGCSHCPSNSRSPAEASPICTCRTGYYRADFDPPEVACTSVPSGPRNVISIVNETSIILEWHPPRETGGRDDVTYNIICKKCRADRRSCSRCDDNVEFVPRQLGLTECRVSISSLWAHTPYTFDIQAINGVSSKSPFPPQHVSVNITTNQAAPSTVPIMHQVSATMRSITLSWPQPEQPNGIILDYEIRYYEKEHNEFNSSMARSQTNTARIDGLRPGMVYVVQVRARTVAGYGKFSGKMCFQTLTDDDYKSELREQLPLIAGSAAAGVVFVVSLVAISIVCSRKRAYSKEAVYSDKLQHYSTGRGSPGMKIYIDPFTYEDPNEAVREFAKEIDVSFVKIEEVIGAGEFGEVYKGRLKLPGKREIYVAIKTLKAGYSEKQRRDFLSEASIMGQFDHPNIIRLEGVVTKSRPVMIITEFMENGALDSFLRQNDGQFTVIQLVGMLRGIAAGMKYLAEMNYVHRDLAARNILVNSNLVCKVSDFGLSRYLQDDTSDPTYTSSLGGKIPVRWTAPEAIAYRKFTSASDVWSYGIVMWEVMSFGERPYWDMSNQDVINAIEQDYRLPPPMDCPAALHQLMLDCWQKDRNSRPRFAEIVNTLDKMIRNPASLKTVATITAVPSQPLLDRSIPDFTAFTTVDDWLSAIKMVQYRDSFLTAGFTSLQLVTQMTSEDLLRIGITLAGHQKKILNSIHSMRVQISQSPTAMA

FGFR1 = FGFR1 (UniProt P11362); assay: as above
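For SH2 binding enrichment of the phosphorylated peptide, bacterial display in this document: peptide library displayed on the E. coli surface as eCPX fusions, selected cells deep-sequenced, score is each peptide's frequency after selection divided by its frequency in the input.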
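For phosphorylation enrichment, bacterial display in this document: 11-residue human phosphosite peptides and single-mutation variants displayed on the E. coli surface, counted by deep sequencing, each peptide's frequency after selection divided by its frequency in the unselected input library; frequency after pTyr selection over input frequency; kinase dosed for 20-30% of maximal phosphorylation in three min.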

Sequence of Grb2 SH2 (P62993 whole entry, looked up): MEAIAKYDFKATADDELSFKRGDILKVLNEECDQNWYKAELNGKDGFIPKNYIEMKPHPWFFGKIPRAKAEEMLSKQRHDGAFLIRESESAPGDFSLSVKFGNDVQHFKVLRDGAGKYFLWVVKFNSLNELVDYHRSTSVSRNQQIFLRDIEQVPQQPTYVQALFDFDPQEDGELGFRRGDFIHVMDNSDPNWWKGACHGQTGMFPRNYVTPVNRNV

Sequence | SH2 binding enrichment (Grb2 SH2) | SH2 binding enrichment (c-Src SH2) | SH2 binding enrichment (SHP2-C SH2) | phosphorylation enrichment (MERTK) | phosphorylation enrichment (c-Src) | phosphorylation enrichment (Jak2) | phosphorylation enrichment (FGFR3) | phosphorylation enrichment (AncSZ) | phosphorylation enrichment (Fes) | phosphorylation enrichment (EPHB2) | phosphorylation enrichment (Fer (mouse)) | phosphorylation enrichment (c-Abl (mouse)) | phosphorylation enrichment (Fyn) | phosphorylation enrichment (Hck) | phosphorylation enrichment (EPHB1) | phosphorylation enrichment (FGFR1)
ATARPYSPYII [LRP5_Y1528_R1529S] | 0.838 | 0.619 | 0.764 | 0.375 | 1.02 | 0.668 | 0.727 | 0.646 | 0.731 | 0.192 | 6.92 | 0.544 | 0.934 | 0.456 | 0.473 | 0.351
ATATDYHTTSH [SLC4A1_Y46] | 0.872 | 0.642 | 0.661 | 0.438 | 0.334 | 0.387 | 0.434 | 0.473 | 0.482 | 0.348 | 0.328 | 0.416 | 0.294 | 0.397 | 0.31 | 0.408
AVAFVYFKSIG [ADGRL4_Y301_YF] | 0.928 | 0.628 | 0.686 | 0.471 | 0.426 | 1.15 | 1.01 | 1.38 | 1.6 | 0.797 | 0.728 | 0.938 | 0.643 | 0.626 | 0.911 | 0.798
AVIADYMFWLG [SPATA16_Y290_M286V] | 1.42 | 1 | 1.4 | 2.51 | 1.17 | 3.42 | 10.7 | 2.25 | 1.3 | 12.4 | 2 | 1.17 | 0.852 | 1.34 | 6.08 | 13.1
CATIHYNFMCN [TP53_Y234_T230A_YF] | 1.37 | 2.23 | 1.51 | 0.497 | 0.525 | 0.903 | 0.596 | 0.993 | 0.944 | 0.52 | 0.602 | 0.757 | 0.478 | 0.577 | 0.68 | 0.634
CDDGKYVFVVT [RPS6KA3_Y488_Y483C_YF] | 0.59 | 0.4 | 0.556 | 0.437 | 0.412 | 1.11 | 0.919 | 1.23 | 1.43 | 0.719 | 0.683 | 0.862 | 0.444 | 0.508 | 0.604 | 0.574
CEHFSYYGMKA [SLC15A2_Y60_R57H] | 0.961 | 1.24 | 0.661 | 1.54 | 2.37 | 5.02 | 3.17 | 1.06 | 0.933 | 0.644 | 0.812 | 0.708 | 0.866 | 1.93 | 0.52 | 5.26
CEHRGSLFLAI [TEK_Y897_Y897S_YF] | 0.989 | 0.567 | 0.672 | 0.422 | 0.457 | 1.04 | 0.725 | 1.03 | 1.16 | 0.564 | 0.533 | 0.944 | 0.427 | 0.457 | 0.55 | 0.501
CEQELYSQLVF [WAS_Y102_W97C_YF] | 0.933 | 0.515 | 0.553 | 6.07 | 5.87 | 1.24 | 1.79 | 1.59 | 1.44 | 2.2 | 10.7 | 0.987 | 6.89 | 6.76 | 1.84 | 1.66
CGPLLYGLVHQ [PRKCG_Y122_S119P] | 0.815 | 0.517 | 0.881 | 4.98 | 4.08 | 1.06 | 0.723 | 0.884 | 1.16 | 4.12 | 8.22 | 0.73 | 3.72 | 4.88 | 2.72 | 0.593
CGQDPYIRELG [UROS_Y19] | 0.731 | 0.563 | 0.492 | 0.427 | 0.433 | 0.971 | 0.707 | 1.05 | 1.27 | 0.53 | 0.534 | 0.877 | 0.535 | 0.569 | 0.674 | 0.497
CGTPDNIAPEI [PRKCG_Y521_Y521N] | 0.777 | 0.485 | 0.533 | 0.459 | 0.458 | 0.989 | 0.933 | 1.17 | 1.49 | 0.762 | 0.548 | 0.782 | 0.593 | 0.609 | 0.72 | 0.51
CKRQFYLFKGK [RSPO4_Y112_YF] | 1.28 | 1.07 | 1.05 | 0.489 | 0.377 | 0.745 | 0.591 | 0.863 | 1.01 | 0.546 | 0.403 | 0.497 | 0.431 | 0.4 | 0.385 | 0.446
CLNAIYQNNLT [GSR_Y158_R153C] | 4.11 | 0.807 | 0.67 | 0.563 | 1.41 | 0.744 | 0.722 | 0.991 | 0.996 | 0.636 | 3.44 | 0.759 | 0.995 | 1.53 | 0.622 | 0.479
CPYNLYAEQFS [HGD_Y40_L44F] | 0.855 | 0.706 | 0.645 | 3.9 | 6.06 | 0.989 | 0.973 | 1.46 | 1.16 | 3.18 | 2.09 | 0.72 | 3.86 | 3 | 4.18 | 0.877
CRIELYRIVES [IGFBP1_Y181_V183I] | 0.888 | 0.556 | 0.682 | 0.451 | 0.53 | 1.28 | 0.837 | 1.21 | 1.49 | 0.616 | 0.579 | 0.991 | 0.455 | 0.548 | 1.82 | 0.422
CSDPSYVKQME [CDC5L_Y464_Y459C] | 0.882 | 0.515 | 0.666 | 0.493 | 0.488 | 1.13 | 0.931 | 1.22 | 1.38 | 0.626 | 0.661 | 0.849 | 0.467 | 0.492 | 0.703 | 0.488

Sequence | SH2 binding enrichment (Grb2 SH2) | SH2 binding enrichment (c-Src SH2) | SH2 binding enrichment (SHP2-C SH2) | phosphorylation enrichment (MERTK) | phosphorylation enrichment (c-Src) | phosphorylation enrichment (Jak2) | phosphorylation enrichment (FGFR3) | phosphorylation enrichment (AncSZ) | phosphorylation enrichment (Fes) | phosphorylation enrichment (EPHB2) | phosphorylation enrichment (Fer (mouse)) | phosphorylation enrichment (c-Abl (mouse)) | phosphorylation enrichment (Fyn) | phosphorylation enrichment (Hck) | phosphorylation enrichment (EPHB1) | phosphorylation enrichment (FGFR1)
CSEEMYRLMLQ [RET_Y981] | 0.7 | 0.414 | 0.549 | 0.573 | 0.643 | 1.5 | 0.853 | 1.4 | 1.41 | 0.664 | 0.619 | 0.947 | 0.606 | 0.666 | 0.695 | 0.921
CSSGGYEPRGR [FUS_Y239_R234C] | 0.887 | 0.472 | 0.654 | 0.396 | 0.353 | 0.594 | 0.547 | 0.801 | 0.861 | 0.439 | 0.475 | 0.528 | 0.411 | 0.436 | 0.411 | 0.432
CTNIHYNYMCN [TP53_Y234_T231N] | 1.05 | 5.66 | 1.86 | 0.418 | 0.408 | 0.799 | 0.62 | 0.754 | 0.82 | 0.537 | 0.522 | 1.62 | 0.464 | 0.437 | 0.734 | 0.468
CTTIDYNYMCN [TP53_Y234_H233D] | 0.768 | 1.34 | 1 | 0.449 | 0.488 | 0.838 | 0.831 | 1.3 | 0.93 | 0.643 | 0.464 | 0.682 | 0.558 | 0.598 | 0.715 | 0.957
CTTIHHNFMCN [TP53_Y234_Y234H_YF] | 1.36 | 1.36 | 0.933 | 0.377 | 0.362 | 0.606 | 0.641 | 0.713 | 0.844 | 0.51 | 0.483 | 0.478 | 0.453 | 0.436 | 0.482 | 0.525
CTTIHYDFMCN [TP53_Y234_N235D_YF] | 1.2 | 6.1 | 2.73 | 0.49 | 0.545 | 0.873 | 0.764 | 1.16 | 1.03 | 0.514 | 1.05 | 0.704 | 0.644 | 0.656 | 0.681 | 0.544
CTTIHYFFMCN [TP53_Y234_N235Y_YF] | 0.894 | 0.553 | 0.883 | 0.309 | 0.279 | 1.07 | 0.635 | 0.966 | 0.982 | 0.534 | 0.384 | 0.662 | 0.424 | 0.37 | 0.515 | 0.413
CTTIHYNFLCN [TP53_Y234_M237L_YF] | 1.93 | 2.28 | 2.12 | 0.435 | 0.499 | 0.623 | 0.674 | 0.873 | 0.941 | 0.576 | 0.554 | 0.585 | 0.531 | 0.469 | 0.54 | 0.556
CTTIHYNYMWN [TP53_Y234_C238W] | 1.11 | 0.874 | 1.18 | 1.82 | 0.496 | 0.966 | 0.976 | 1.21 | 1.32 | 0.746 | 1.77 | 0.824 | 0.569 | 0.544 | 1.12 | 1.21
CTTNHYNYMCN [TP53_Y234_I232N] | 0.802 | 11 | 2.42 | 0.398 | 0.373 | 0.593 | 0.526 | 0.725 | 0.712 | 0.483 | 0.489 | 0.495 | 0.382 | 0.415 | 0.682 | 0.479
DDDPEDRKFLE [UPF3B_Y160_Y160D] | 0.938 | 0.579 | 0.613 | 0.541 | 0.503 | 1.17 | 0.641 | 1.12 | 1.24 | 0.501 | 0.56 | 0.867 | 0.56 | 0.594 | 0.586 | 0.51
DDFDLYGGEKF [PTPN11_Y66_Y62D_YF] | 0.569 | 0.426 | 0.545 | 0.475 | 2.14 | 1.2 | 0.727 | 1.28 | 1.38 | 0.659 | 1.72 | 0.731 | 2.27 | 3.11 | 0.639 | 0.585
DEGVNYFMSKG [FBXO8_Y156] | 0.674 | 0.442 | 0.544 | 0.39 | 0.388 | 0.996 | 0.926 | 1.1 | 0.984 | 0.685 | 0.402 | 0.705 | 0.422 | 0.456 | 0.457 | 0.862
DFLSSYSAVKQ [OAT_Y85_N89K] | 1.05 | 1.21 | 4.04 | 0.273 | 0.444 | 0.639 | 0.445 | 1.5 | 1.03 | 0.502 | 0.746 | 0.46 | 0.466 | 0.429 | 0.516 | 0.491
DGTESYHTVSS [PLK1_Y462_L463H] | 0.769 | 1.61 | 0.755 | 0.299 | 0.423 | 0.52 | 0.872 | 0.569 | 0.682 | 0.514 | 0.348 | 0.552 | 0.433 | 0.436 | 0.342 | 0.558
DGYIDYAEFAK [MCFD2_Y138] | 0.733 | 0.661 | 0.47 | 0.455 | 0.912 | 0.917 | 1 | 1.13 | 1 | 0.579 | 0.407 | 0.674 | 0.635 | 0.657 | 0.639 | 1.31
